Columns and labels:
[1] = biological target: biotinylated Taxol-stabilized microtubules grown from bovine tubulin (bovine) (UniProt Q6B856); assay: single-molecule TIRF microscopy; biotinylated Taxol-stabilized microtubules tethered to the coverslip; 1.5 nM 549SNAP-tagged KKT4 in BRB80, 1 mg/ml κ-casein, 1 mM DTT, 10 µM Taxol; residence time, lattice diffusion and brightness of single particles
[2] = biological target: dynamic microtubules grown from coverslip-anchored GMPCPP-stabilized seeds with purified bovine brain tubulin (bovine) (UniProt Q6B856); assay: laser trap bead assay; protein held on streptavidin beads by biotinylated His5 antibody (60, 600, 6,500 nM); dynamic microtubules from coverslip-anchored seeds, 6 µM bovine brain tubulin; preload 0.8 ± 0.3 pN (3.3 ± 0.5 pN for Ndc80 complex), friction coefficient on the lattice, then force ramp of 0.25 pN/s until rupture of the tip attachment

Substance: full-length charge-reversal mutant KKT4 (R123E, K132E, R154E), 549SNAP-tagged (natural protein)
- fold change of the average residence time against wild-type KKT4 [1]: 2 fold shorter
- fold change of the lattice diffusion against wild-type KKT4 [1]: 2 fold faster

Substance: 6HIS-KKT4 115-343 (domain or fragment)
- average rupture force of tip attachments [2]: 2.1 pN

Substance: full-length KKT4 fused with an N-terminal SNAP-6HIS-3FLAG tag, labeled with 549SNAP dye (natural protein)
- average residence time [1]: 5.4 s
- diffusion coefficient on the microtubule lattice [1]: 0.0071 µm^2/s

Substance: charge-reversal mutant KKT4 115-343 (R123E, K132E, R154E) (domain or fragment)
- average rupture force of tip attachments [2]: 1.6 pN

— publication PMC6219724
